Data set [1] deals with T1, Cap0037 (Clostridium acetobutylicum ATCC 824) (UniProt Q97TR1).
T1 sequence: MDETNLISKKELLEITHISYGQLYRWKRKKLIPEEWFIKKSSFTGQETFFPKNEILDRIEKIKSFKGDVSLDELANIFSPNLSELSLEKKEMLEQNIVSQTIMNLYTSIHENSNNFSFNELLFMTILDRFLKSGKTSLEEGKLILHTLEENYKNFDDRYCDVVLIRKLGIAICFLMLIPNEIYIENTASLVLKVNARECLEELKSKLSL
The experiment in a line: DNase I footprinting. The note with it: EMSA: 20 ul with 2 ul buffer (stock 200 mM Tris, 500 mM Na glutamate, 100 mM MgCl2, 63.6 mM EDTA, 0.5% NP-40, 50% glycerol), 1 ug poly(dI-dC), 20 min room …. For orientation: Mobility shift assays separate free from complexed probe on a gel.

Data set [2] addresses T1, Cap0037 (Clostridium acetobutylicum ATCC 824). The experiment in a line: EMSA. The note with it: EMSA: 20 ul with 2 ul buffer (stock 200 mM Tris, 500 mM Na glutamate, 100 mM MgCl2, 63.6 mM EDTA, 0.5% NP-40, 50% glycerol), 1 ug poly(dI-dC), 20 min room ….

As to “ACAGAATTCCTCAATTCTATTTATGCTCCTATAAAATTTTATAATATAGGAAAACTGCTAAATGTAAATTATACGTTTACATTTAGCAGTTTATTTTAAACCTTCATATTTTTCTAAATATACTGATAATTCCTAAATATATATTATTACGCCAAAATATTAGATACCATTTTGTAAAAGTTGCTATTTACATTTAAATACACAGCTGTTATATTTTTGACCTATGCTTTTTATTGGAT (double strand) [probe sol (sol promoter, footprint)]”, the binding entry in data set [1] was “binds”.

Regarding “ACAGAATTCGCAGAATTTTTAGGAAGTGTACTTTTATTTTCGAAAGCTAGTAGAAAAAATTAATATATGGTGTAAAAATTTACTTAAAAAAACAATATGTGTTATAATGTAAATATAAATAAATAGGACTAGAGGCGATTTATAATGTGAAGATAAAGTATGTTAGAAAAGCTAAACATTATTAAATTTAGGAAGGTGACTTTTATGTTAAAGGATGAAGTAATTAAACAAATTAGCACGCCATTAACTTCGCCGAT (double strand) [probe adcStart (adc transcription start)]”, in data set [1], the binding result is reported as “binds”.

In the case of “AGAGAATTCCCATTTTACCTTCTATTCTAACTAAAAGGTATATTGATACAGCTATGGGAAAGCCAACATTGCCTATAAGAGACACTATATCGCCTGAATTCATAAAAACACCTCCACATAAGTTTATATAAATCTATTATGCAGAATTTTTAGGAAGTGTACTTTTATTTTCGAAAGCTAGTAGAAAAAATTAATATATGGTGTAAAAATTTACTTAAAAAAACAATATGTGTTATAATGGAT (double strand) [probe 144 (adc promoter, upstream site)]”, in data set [1], the binding result is given as “binds”.

As for “CTGCATAATATAAAATGCAGATTTTTTTAAACAAATATTGATAAAGATTATCAAATGATATATAATATTGTTAGTTAATAAATTAACAAAGTTTTATATTTTAAATACAATGTTGCATAAGACAAGGTAATTGAACTAATACTATACTAGTAATTGGAGGGGATAATATATGAAAAAGAATACTAAAATTTCAGTAATCGGAGCAGGATTTGT (double strand) [ldhA promoter]”, the binding result in data set [2] is on record as “no binding”.

Consider “GCATAGGTCAAAAATATAACAGCTGTGTATTTAAATGTAAATAGCAACTTTTACAAAATGGTATCTAATATTTTGGCGTAATAATATATATTTAGGAATTATCAGTATATTTAGAAAAATATGAAGGTTTAAAATAAACTGCTAAATGTAAACGTATAATTTACATTTAGCAGTTTTCCTATATTATAAAATTTTATAGGAGCATAAATAGAATTGAGT (double strand) [sol probe (EMSA)]”, for which the binding result in data set [2] is reported as “binds”.

The record behind these values is publication PMC5050335.
